According to patent US20240262791:

System: dPsCas13b-133FSY (in HEK293T) A133FSY (fluorosulfate-L-tyrosine) (Prevotella sp. P5-125)
Experiment: pulldown
Settings: RIP RT-qPCR in HEK293T; no enrichment without crRNA

crACTB guide ; ACTB mRNA
binding signal (fold over dPsCas13b-WT): 4
